According to patent US6835382B2, “Ii peptide therapeutics to enhance antigen presentation” (University of Massachusetts, priority 1996, dated 2004):
Non-standard residues stand in square brackets, D forms with d. Cit = NC(=O)NCCC[C@H](N)C(=O)O; Orn = NCCC[C@H](N)C(=O)O

Target: T1, murine E^d MHC class II allele (Mus musculus, UniProt P01904+P01915)
T1 sequence (P01904 26-255): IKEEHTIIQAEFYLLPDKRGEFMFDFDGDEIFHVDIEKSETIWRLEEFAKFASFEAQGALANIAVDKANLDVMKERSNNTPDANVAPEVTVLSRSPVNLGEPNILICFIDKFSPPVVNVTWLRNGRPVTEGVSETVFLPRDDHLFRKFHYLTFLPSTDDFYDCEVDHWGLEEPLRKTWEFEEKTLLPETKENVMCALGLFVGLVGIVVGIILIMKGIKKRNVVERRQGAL
T1 sequence (P01915 27-264 limits assumed): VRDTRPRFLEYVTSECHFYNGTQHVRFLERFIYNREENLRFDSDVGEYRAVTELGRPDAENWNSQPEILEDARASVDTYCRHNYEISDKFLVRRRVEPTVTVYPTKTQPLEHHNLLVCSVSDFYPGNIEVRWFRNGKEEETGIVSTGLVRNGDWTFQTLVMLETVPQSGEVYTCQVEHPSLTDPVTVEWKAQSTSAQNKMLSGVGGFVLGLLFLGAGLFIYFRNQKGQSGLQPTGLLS
Test: simultaneous assay, E^d allele (A20 APC, G28.C9 T hybridoma, HEL106-116; HT-2 [3H]TdR readout)
Assay type: cell-based
Set-up: The A20 and CH27 B cell lymphoma lines express H-2^d and H-2^k alleles, respectively; endogenous in cells; host or cells: A20 B cell lymphoma (mitomycin C-treated or paraformaldehyde-fixed)
How it was run: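 Read-out is [3H]TdR incorporation into HT-2 indicator cells exposed to supernatant from a 24 h primary culture. That culture combined mitomycin C-treated APC (5×10^6 cells/mL, 0.025 mg/mL mitomycin C, 20 min, 37° C), peptide, effector compound and T hybridoma, all added at once.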

[1] = Table 7, AE peptide 64 μM, supernatant 1:4
[2] = Table 5, AE peptide 64 μM, supernatant 1:4
[3] = Table 15, AE peptide 16 μM, supernatant 1:4
[4] = Table 14, AE peptide 64 μM, supernatant 1:4
[5] = Table 4, AE109 homolog 64 μM, supernatant 1:2
[6] = Table 1, AE peptide 64 μM (first value), 0.4 μM HEL106-116, supernatant 1:4
[7] = Table 1, AE peptide 16 μM (second value), 0.4 μM HEL106-116, supernatant 1:4
[8] = Table 2, AE peptide 64 μM, 0.05 μM HEL106-116, supernatant 1:2
[9] = Table 11, AE peptide 64 μM, supernatant 1:8
[10] = Table 16, AE peptide 4 μM, supernatant 1:8

## Ac-LRMK Q PK-NH2 (Ac-LRMKQPK-NH2) [AE233]
[1]
  Times Baseline Response, E^d: 11.5

## Ac-LR[Orn]KLPK-NH2 [AE195]
[2]
  Times Baseline Response, E^d: 12.1
[3]
  Times Baseline Response, E^d: 34.3

## Ac-LR (mL) KYPK-NH2 [AE303]
[4]
  Times Baseline Response, E^d: 4.0

## Ac-LRLKyPK-NH2 [AE308]
[4]
  Times Baseline Response, E^d: 12.6

## Ac-L[Cit]MKNPK-NH2 [AE342]
[3]
  Times Baseline Response, E^d: 2.3

## Ac-Y H MKLPKSAK-NH2 [AE133]
[5]
  Times Baseline Response, E^d: 0.9

## Ac-Y Q MKLPKSAK-NH2 [AE138]
[5]
  Times Baseline Response, E^d: 0.7

## Ac-LRMKLPKPPP-NH2 [AE167]
[6]
  Times Baseline Response, E^d: 20.1, n.d.

## Ac-YRMKLPK-NH2 [AE113]
[7]
  Times Baseline Response, E^d: 23.1
[6]
  Times Baseline Response, E^d: 36.3
Table 3, AE peptide 64 μM, supernatant 1:4
  Times Baseline Response, Ed: 12.3

## Ac-ARNKNPF-NH2 [AE347]
[3]
  Times Baseline Response, E^d: 1.0

## Ac-NLQLDSLRMKLPKSAK-NH2 [AE150]
[8]
  Times Baseline Response, E^d: 3.2

## Ac-LRMKLPKPPK-NH2 [AE168]
[6]
  Times Baseline Response, E^d: 16.7, n.d.

## Ac-L r MKLPK-NH2 [AE161]
[9]
  Times Baseline Response, E^d: 4.0

## Ac-LRNKNPK-NH2 [AE349]
[3]
  Times Baseline Response, E^d: 25.3

## Ac-LRMKLPKSAK-NH2 [AE110]
[7]
  Times Baseline Response, E^d: 27.8
[6]
  Times Baseline Response, E^d: 47.1
[8]
  Times Baseline Response, E^d: 23.8

## Ac-LRMK E PK-NH2 (Ac-LRMKEPK-NH2) [AE231]
[1]
  Times Baseline Response, E^d: 1.8

## Ac-Y Y MKLPKSAK-NH2 [AE140]
[5]
  Times Baseline Response, E^d: 0.7

## YRMKLPKSAKPVSQMR [AE101]
[7]
  Times Baseline Response, E^d: 4.9
[6]
  Times Baseline Response, E^d: 13.6

## Ac-LRMKLP F-NH2 (Ac-LRMKLPF-NH2) [AE248]
Table 9, AE peptide 64 μM, supernatant 1:4
  Times Baseline Response, E^d: 17.2
[3]
  Times Baseline Response, E^d: 34.7

## Ac-YAMKLPKSAK-NH2 [AE121]
[5]
  Times Baseline Response, E^d: 1.1
Table 10, AE peptide 16 μM (second value), supernatant 1:2
  Times Baseline Response, E^d: 1.9
Table 10, AE peptide 64 μM (first value), supernatant 1:2
  Times Baseline Response, E^d: 2.7

## Ac-Y[Cit]MKLPKSAK-NH2 [AE131]
[5]
  Times Baseline Response, E^d: 2.8
[3]
  Times Baseline Response, E^d: 1.6

## Ac-LR (mL) KyPK-NH2 [AE304]
[4]
  Times Baseline Response, E^d: 3.9

## Ac- (mL) RMKLPK-NH2 [AE174]
Table 13, AE peptide 1 μM (fourth value), supernatant 1:4
  Times Baseline Response, E^d: 1
Table 13, AE peptide 4 μM (third value), supernatant 1:4
  Times Baseline Response, E^d: 2
Table 13, AE peptide 16 μM (second value), supernatant 1:4
  Times Baseline Response, E^d: 40
Table 13, AE peptide 64 μM (first value), supernatant 1:4
  Times Baseline Response, E^d: 55
[4]
  Times Baseline Response, E^d: 15.9

## Ac-LR HArg KLPK-NH2 [AE197]
[2]
  Times Baseline Response, E^d: 10.7
[10]
  Times Baseline Response, E^d: 16.3

## Ac-YRMKL hydrP KSAK-NH2 (Ac-YRMKL[hydrP]KSAK-NH2) [AE143]
Table 8, AE peptide 4 μM (third), supernatant 1:8
  Times Baseline Response, E^d: 8.0
Table 8, AE peptide 16 μM (second), supernatant 1:8
  Times Baseline Response, E^d: 19.6,
Table 8, AE peptide 64 μM (first), supernatant 1:8
  Times Baseline Response, E^d: 19.4,

## Ac-LRLKYPk-NH2 [AE307]
[4]
  Times Baseline Response, E^d: 13.2

## Ac-YRM-NH2 [AE118]
[7]
  Times Baseline Response, E^d: 0.6
[6]
  Times Baseline Response, E^d: 1.0

## Ac-LRMKLP k-NH2 [AE166]
[9]
  Times Baseline Response, E^d: 26.4
[4]
  Times Baseline Response, E^d: 14.7

## Ac-LR L KLPK-NH2 (Ac-LRLKLPK-NH2; not fully specified; printed as Ac-LR L KLPK-NH2) [AE206]
[2]
  Times Baseline Response, E^d: 11.9
[4]
  Times Baseline Response, E^d: 12.7
[3]
  Times Baseline Response, E^d: 25.5
[10]
  Times Baseline Response, E^d: 15.5

## Ac-DSLRMKLPKSAK-NH2 [AE154]
[8]
  Times Baseline Response, E^d: 15.1

## Ac-LRMK Y PK-NH2 (Ac-LRMKYPK-NH2; not fully specified; printed as Ac-LRMK Y PK-NH2) [AE235]
[1]
  Times Baseline Response, E^d: 14.6
[4]
  Times Baseline Response, E^d: 12.5
[3]
  Times Baseline Response, E^d: 29.4
[10]
  Times Baseline Response, E^d: 14.3
Table 17, AE peptide 4 μM, supernatant 1:4
  Times Baseline Response, E^d: 51
Table 18, AE peptide 64 μM, supernatant 1:4
  Times Baseline Response, E^d: 12.5

## Ac-LRMK N PK-NH2 (Ac-LRMKNPK-NH2) [AE232]
[1]
  Times Baseline Response, E^d: 12.5
[3]
  Times Baseline Response, E^d: 24.3

## Ac-Y N MKLPKSAK-NH2 [AE137]
[5]
  Times Baseline Response, E^d: 0.8

## Ac-LRMK M PK-NH2 (Ac-LRMKMPK-NH2) [AE236]
[1]
  Times Baseline Response, E^d: 15.2

## Ac-LRMK K PK-NH2 (Ac-LRMKKPK-NH2) [AE229]
[1]
  Times Baseline Response, E^d: 13.2
